Experimental data as given in patent US20210155689A1 (SHANGHAI PHARMAEXPLORER, published 2021).
Numbering of substitutions follows the chain as printed.

B1: 556F6B8 (mouse antibody purified from hybridoma) (antibody, V domains shown)
VH: RVQLKQSGPGLVQPSQSLSITCTVSGFSLIKYGVHWVRQSPGEGLEWLGVIWRGGITDYNAAFMSRLSITKDNSKSQVFFKMNSLQADDTAIYYCAKWDGPLAMDYWGQGTSVTVSS
VL: DIVMTQSHKFLSTSVGDRVSITCKASQDVGTTVAWYQQKPGQSPKLLIYWASTRHTGVPDRFTGSGSGTDFTLTISNVQSEDLADYFCQQYSSYPYTFGGGTKLEIK
notes: also called mAb123-556F6B8
B2: 405B8H3 (mouse antibody purified from hybridoma) (antibody, V domains shown)
VH: QVQLQQSGAELVRPGASVTLSCKASGYTFTDYEMHWVKQTPVHGLEWIGATDPETGNSAYNQKFKGKAIMTADKSSSTAYMELRSLTSEDSAVYYCISTGWNDWGQGTSLTVSS
VL: DIKMTQSPSSMYASLGERVTITCKASQDINSYLSWFQQKPGKSPKTLIYRADRLLDGVPSRFSGSGSGQDYSLTISSLEYGDMGIYYCLQYDEFPYTFGGGTKLEIK
notes: also called mAb103-405B8H3; 405B81-13
B3: 105F1E10 (mouse antibody purified from hybridoma) (antibody, V domains shown)
VH: EVQLQQSGPELVKPGASVKMSCRASGYTFTDFKMHWMKQSHGKSLEWIGYIAPNNGGTAYNQKFRGKATLTVNESSNTAYMELRSLTSEDSAVYYCVDWDDVDYWGQGTTLTVSS
VL: B2 VL with P40S, D52N, L55V, G81E, D92V, Y96L, G100A, I106L
notes: also called mAb009-105F1E10
B4: 409D4E10 (mouse antibody purified from hybridoma) (antibody, V domains shown)
VH: B2 VH with Y27N, G56D, S58T, M70L, A72T, S98T, T99S
VL: B2 VL with D52N, G81E, D92N
notes: also called mAb112-409D4E10
B5: 409B11E12 (mouse antibody purified from hybridoma) (antibody, V domains shown)
VH: B2 VH with P41T, G56S, N57Y, M70L, S98A
VL: B2 VL with I2L, D52N, G81E
notes: also called mAb104-409B11E12

Experiments:
[1] = biological target: T1, human LAG-3 (full length, on the cell surface) (human, UniProt P18627 23-525); assay: FACS, HEK293-hLAG-3; 0.013 nM
T1 construct: Full-length human LAG-3 expressed on cells; also called HEK293-hLAG-3; HEK293 cells transfected with LAG-3 gene
T1 sequence: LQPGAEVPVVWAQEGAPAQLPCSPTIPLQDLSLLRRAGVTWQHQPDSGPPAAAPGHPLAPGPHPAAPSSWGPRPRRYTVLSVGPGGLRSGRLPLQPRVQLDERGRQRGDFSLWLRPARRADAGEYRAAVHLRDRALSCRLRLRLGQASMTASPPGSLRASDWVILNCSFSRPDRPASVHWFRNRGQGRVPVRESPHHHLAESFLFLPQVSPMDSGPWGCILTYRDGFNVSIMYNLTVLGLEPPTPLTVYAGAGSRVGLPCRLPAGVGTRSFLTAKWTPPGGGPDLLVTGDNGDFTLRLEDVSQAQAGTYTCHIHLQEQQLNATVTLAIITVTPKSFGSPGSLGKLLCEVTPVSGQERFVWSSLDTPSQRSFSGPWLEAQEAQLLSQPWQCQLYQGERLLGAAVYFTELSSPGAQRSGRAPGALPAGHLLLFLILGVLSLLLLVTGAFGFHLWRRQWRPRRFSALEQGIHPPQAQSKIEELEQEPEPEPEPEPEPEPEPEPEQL
From the text: The pIRES plasmid with the monkey-derived full-length gene was transfected into the HEK293 cell line to construct a HEK293 stable cell line containing monkey LAG-3 (herein referred to as HEK293-cLAG-3 stable cell line). The HEK293-hLAG-3 stable cell line and HEK293-cLAG-3 stable cell line were expanded in a T-75 cell culture flask to a 90% confluence. The medium was aspirated, and the cells were washed with HBSS (Hanks' Balanced Salt Solution) 1-2 times, then treated with a enzyme-free cell dissociation fluid (Versene solution: Life technology) and the cells were collected. The cells were washed with HBSS buffer for 1-2 times. After counted, the cells were diluted with HBSS to 1-2×10⁶ cells per ml, added with 1% goat serum blocking solution, incubated on ice for 20-30 minutes, and then washed with HBSS for 2 times by centrifugation. The collected cells were suspended in the FACS buffer (HBSS+1% BSA) to 2×10⁶ cells/ml, added as 100 microliters per well to a 96-well FACS reaction plate, added with 100 microliters per well of the antibody sample to be tested, incubated on ice for 1-2 hours. The plate was washed twice with the FACS buffer by centrifugation, added with 100 microliters of fluorescent (Alexa 488)-labeled secondary antibodies per well, and incubated on ice for 0.5-1.0 hours. The plate was washed 2-3 times with FACS buffer by centrifugation, added with 100 μl fixative solution (4% Paraformaldehyde) per well to suspend the cells. 5-10 minutes later, it was washed 1-2 times with FACS buffer by centrifugation. The cells were suspended with 100 microliters of FACS buffer, FACS (FACSCalibur, BD) was used for detection and the results were analyzed.

[2] = biological target: T2, human LAG-3 protein with hFc tag (hLAG-3-hFc protein) (human, UniProt P18627 23-450); assay: FACS, blocks LAG-3-hFc binding to MHC II on Raji; 7.407 nM
T2 construct: also called immunogen 1; LAG-3 extracellular domain protein; not shown: human IgG Fc fragment (hFc) of the pCpC vector
T2 sequence: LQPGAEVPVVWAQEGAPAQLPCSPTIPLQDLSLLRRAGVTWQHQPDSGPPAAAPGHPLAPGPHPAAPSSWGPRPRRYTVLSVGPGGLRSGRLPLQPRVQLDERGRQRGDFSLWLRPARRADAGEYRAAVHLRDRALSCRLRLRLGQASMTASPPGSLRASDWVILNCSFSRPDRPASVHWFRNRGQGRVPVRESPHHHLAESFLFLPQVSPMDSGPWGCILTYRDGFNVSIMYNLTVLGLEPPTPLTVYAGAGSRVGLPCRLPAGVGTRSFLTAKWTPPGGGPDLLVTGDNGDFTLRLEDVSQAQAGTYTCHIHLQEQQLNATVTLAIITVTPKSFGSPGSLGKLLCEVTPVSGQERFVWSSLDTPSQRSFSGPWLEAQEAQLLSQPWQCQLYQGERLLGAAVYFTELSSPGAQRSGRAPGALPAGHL
Protocol: The FACS reaction plate incubating the Raji cells was centrifuged to discard the supernatant. The above mixture was added as 100 μl per well to Raji cells and incubated on ice for 1-2 hours. The plate was washed twice with blocking solution (PBS, 2% fetal bovine serum) by centrifugation, added with 100 microliters of fluorescent (Alexa 488)-labeled secondary antibodies per well, and incubated on ice for 1.0 hours. The plate was washed 2-3 times by centrifugation with blocking solution (PBS, 2% fetal bovine serum), added with 100 microliters of PBS per well to suspend cells, and detected using FACS (FACS Calibur, BD) and the results were analyzed. Wherein, the IgG control was murine IgG, and the data in the table is the inhibition rate (%).

Row | Binder | Mean fluorescence intensity [1] [MFI] | Inhibition rate (%) [2] [%]
1 | B1 | 3.6 | 93.3
2 | B2 | 5 | 87.3
3 | B3 | 5 | 81
4 | B4 | 3.3 | 93
5 | B5 | 2.9 | 93.4
